“And” between values parts separate entries of the source, which are not always exact repeats. Equal entries are not always repeated. Where two headings read alike, the source gives them in different places. Blank lines part the entries; values can stand above or below the substance they belong to.
How the values were obtained:
Assay in all cases: cell-based or functional assay
relaxin receptor (LGR7) [1] = molecular target: relaxin receptor (LGR7)
relaxin receptor (LGR7) [2] = molecular target: relaxin receptor (LGR7); remark: listed apart in the source
Leptin receptor = molecular target: Leptin receptor

Fluorescence reading (luciferase assay) at 0.00035 uM (relaxin receptor (LGR7) [1]): 14600
Fluorescence reading (luciferase assay) at 0.003153 uM (relaxin receptor (LGR7) [1]): 24500
Fluorescence reading (luciferase assay) at 0.00946 uM (relaxin receptor (LGR7) [1]): 30200 and 24900 and 28500
Fluorescence reading (luciferase assay) at 0.000000481 uM (relaxin receptor (LGR7) [2]): 1440 and 480 and 560
Fluorescence reading (luciferase assay) at 0.00000144 uM (relaxin receptor (LGR7) [2]): 2880 and 2160 and 1280
Fluorescence reading (luciferase assay) at 0.00000433 uM (relaxin receptor (LGR7) [2]): 4400 and 2400
Fluorescence reading (luciferase assay) at 0.000013 uM (relaxin receptor (LGR7) [2]): 10800 and 8960 and 9840
Fluorescence reading (luciferase assay) at 0.0000389 uM (relaxin receptor (LGR7) [2]): 12100 and 7120 and 12800
Fluorescence reading (luciferase assay) at 0.000117 uM (relaxin receptor (LGR7) [2]): 18500 and 18200
Fluorescence reading (luciferase assay) at 0.00035 uM (relaxin receptor (LGR7) [2]): 21500 and 19100
Fluorescence reading (luciferase assay) at 0.001051 uM (relaxin receptor (LGR7) [2]): 29000 and 26800
Fluorescence reading (luciferase assay) at 0.003153 uM (relaxin receptor (LGR7) [2]): 23300 and 23700
Substance: Relaxin-2 (ligand)

EC50 (Baf3-LepR cell proliferation, AlamarBlue) (Leptin receptor): 0.352 nM
Fluorescent reading (AlamarBlue) at 0.01 pg/ml (6.25E-08 nM) (Leptin receptor): 2500 and 2520
Fluorescent reading (AlamarBlue) at 0.1 pg/ml (Leptin receptor): 1700
Fluorescent reading (AlamarBlue) at 0.1 pg/ml (6.25E-07 nM) (Leptin receptor): 2010
Fluorescent reading (AlamarBlue) at 10 pg/ml (Leptin receptor): 924
Fluorescent reading (AlamarBlue) at 10 pg/ml (6.25E-05 nM) (Leptin receptor): 2110
Fluorescent reading (AlamarBlue) at 100 pg/ml (6.25E-03 nM) (Leptin receptor): 725 and 1740
Fluorescent reading (AlamarBlue) at 1000 pg/ml (0.0625 nM) (Leptin receptor): 7000 and 5190
Fluorescent reading (AlamarBlue) at 10000 pg/ml (0.625 nM) (Leptin receptor): 26000 and 16500
Fluorescent reading (AlamarBlue) at 100000 pg/ml (6.25 nM) (Leptin receptor): 29000 and 15300
Fluorescent reading (AlamarBlue) at 1000000 pg/ml (62.5 nM) (Leptin receptor): 33500 and 26400
Fluorescent reading (AlamarBlue) at 10000000 pg/ml (6250 nM) (Leptin receptor): 38300 and 32400
Substance: human leptin (R&D) (from UniProt P41159 22-167) (ligand)

Reference: patent US20150376264A1
